# Reference: the supplement of paper PMC11908140
# B1: library; numbered along this chain (parent)
# chain: MRKPRAAVGSGHRKQAASQEGRQKHAKNNSQAKPSACDGLARQPEEVVLQASVSSYHLFRDVAEVTAFRGSLLSWYDQEKRDLPWRRRAEDEMDLDRRAYAVWVSEVMLQQTQVATVINYYTGWMQKWPTLQDLASASLEEVNQLWAGLGYYSRGRRLQEGARKVVEELGGHMPRTAETLQQLLPGVGRYTAGAIASIAFGQATGVVDGNVARVLCRVRAIGADPSSTLVSQQLWGLAQQLVDPARPGDFNQAAMELGATVCTPQRPLCSQCPVESLCRARQRVEQEQLLASGSLSGSPDVEECAPNTGQCHLCLPPSEPWDQTLGVVNFPRKASRKPPREESSATCVLEQPGALGAQILLVQRPNSGLLAGLWEFPSVTWEPSEQLQRKALLQELQRWAGPLPATHLRHLGEVVHTFSHIKLTYQVYGLALEGQTPVTTVPPGARWLTQEEFHTAAVSTAMKKVFRVYQGQQPGTCMGSKRSQVSSPCSRKKPRMGQQVLDNFFRSHISTDAHSLNSAAQ
# Variants of: B1
# Test: 8OG:A repair function score (normalized; synonymous = 0, nonsense = -1) (normalized log-likelihood score); higher = more repair activity (WT-like)
# Conditions: with 8OG:A DNA repair reporter (GFP) in HEK-293 MUTYH KO cells
# Method in brief: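 MUTYH knockout HEK-293 cells carrying lentiviral MUTYH cDNA NNN codon-scan libraries were grown with 10 pg/ml doxycycline and co-transfected with mCherry and a GFP reporter of 8OG:A repair. Viable mCherry+ cells were sorted at 72 h into GFP+ (repair) and GFP− bins, with three replicates per tile, and tile amplicons were sequenced. Rosace fitness scores for each tile were turned into a normalized repair function score anchored on the synonymous and nonsense distributions. Synonymous medians were set to 0 and nonsense medians to -1, and variants below 300 counts per million at the start were dropped.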
row,Variant,8OG:A repair function score
1,MRKPRAAVGSGHRKQAASQEGRQKHAKNNSQAKPSACDGLARQPEEVVLQASVSSYHLFRDVAEVTAFRGSLLSWYDQEKRDLPWRRRAEDEMDLDRRAYAVWVSEVMLQQTQVATVINYYTGWMQKWPTLQDLASASLEEVNQLWAGLGYYSRGRRLQEGARKVVEELGGHMPRTAETLQQLLPGVGRYTAGAIASIAFGQATGVVDGNVARVLCRVRAIGADPSSTLVSQQLWGLAQQLVDPARPGDFNQAAMELGATVCTPQRPLCSQCPVESLCRARQRVEQEQLLASGSLSGSPDVEECAPNTGQCHLCLPPSEPWDQTLGVVNFPRKASRKPPREESSATCVLEQPGALGAQILLVQRPNSGLLAGLWEFPSVTWEPSEQLQRKALLQELQNWAGPLPATHLRHLGEVVHTFSHIKLTYQVYGLALEGQTPVTTVPPGARWLTQEEFHTAAVSTAMKKVFRVYQGQQPGTCMGSKRSQVSSPCSRKKPRMGQQVLDNFFRSHISTDAHSLNSAAQ [R398N],-0.285
2,MRKPRAAVGSGHRKQAASQEGRQKHAKNNSQAKPSACDGLARQPEEVVLQASVSSYHLFRDVAEVTAFRGSLLSWYDQEKRDLPWRRRAEDEMDLDRRAYAVWVSEVMLQQTQVATVINYYTGWMQKWPTLQDLASASLEEVNQLWAGLGYYSRGRRLQEGARKVVEELGGHMPRTAETLQQLLPGVGRYTAGAIASIAFGQATGVVDGNVARVLCRVRAIGADPSSTLVSQQLWGLAQQLVDPARPGDFNQAAMELGATVCTPQRPLCSQCPVESLCRARQRVEQEQLLASGSLSGSPDVEECAPNTGQCHLCLPPSEPWDQTLGVVNFPRKASRKPPREESSATCVLEQPGALGAQILLVQRPNSGLLAGLWEFPSVTWEPSEQLQRKALLQELQMWAGPLPATHLRHLGEVVHTFSHIKLTYQVYGLALEGQTPVTTVPPGARWLTQEEFHTAAVSTAMKKVFRVYQGQQPGTCMGSKRSQVSSPCSRKKPRMGQQVLDNFFRSHISTDAHSLNSAAQ [R398M],0.0969
3,MRKPRAAVGSGHRKQAASQEGRQKHAKNNSQAKPSACDGLARQPEEVVLQASVSSYHLFRDVAEVTAFRGSLLSWYDQEKRDLPWRRRAEDEMDLDRRAYAVWVSEVMLQQTQVATVINYYTGWMQKWPTLQDLASASLEEVNQLWAGLGYYSRGRRLQEGARKVVEELGGHMPRTAETLQQLLPGVGRYTAGAIASIAFGQATGVVDGNVARVLCRVRAIGADPSSTLVSQQLWGLAQQLVDPARPGDFNQAAMELGATVCTPQRPLCSQCPVESLCRARQRVEQEQLLASGSLSGSPDVEECAPNTGQCHLCLPPSEPWDQTLGVVNFPRKASRKPPREESSATCVLEQPGALGAQILLVQRPNSGLLAGLWEFPSVTWEPSEQLQRKALLQELQWWAGPLPATHLRHLGEVVHTFSHIKLTYQVYGLALEGQTPVTTVPPGARWLTQEEFHTAAVSTAMKKVFRVYQGQQPGTCMGSKRSQVSSPCSRKKPRMGQQVLDNFFRSHISTDAHSLNSAAQ [R398W],-0.973
4,MRKPRAAVGSGHRKQAASQEGRQKHAKNNSQAKPSACDGLARQPEEVVLQASVSSYHLFRDVAEVTAFRGSLLSWYDQEKRDLPWRRRAEDEMDLDRRAYAVWVSEVMLQQTQVATVINYYTGWMQKWPTLQDLASASLEEVNQLWAGLGYYSRGRRLQEGARKVVEELGGHMPRTAETLQQLLPGVGRYTAGAIASIAFGQATGVVDGNVARVLCRVRAIGADPSSTLVSQQLWGLAQQLVDPARPGDFNQAAMELGATVCTPQRPLCSQCPVESLCRARQRVEQEQLLASGSLSGSPDVEECAPNTGQCHLCLPPSEPWDQTLGVVNFPRKASRKPPREESSATCVLEQPGALGAQILLVQRPNSGLLAGLWEFPSVTWEPSEQLQRKALLQELQSWAGPLPATHLRHLGEVVHTFSHIKLTYQVYGLALEGQTPVTTVPPGARWLTQEEFHTAAVSTAMKKVFRVYQGQQPGTCMGSKRSQVSSPCSRKKPRMGQQVLDNFFRSHISTDAHSLNSAAQ [R398S],-0.426
5,MRKPRAAVGSGHRKQAASQEGRQKHAKNNSQAKPSACDGLARQPEEVVLQASVSSYHLFRDVAEVTAFRGSLLSWYDQEKRDLPWRRRAEDEMDLDRRAYAVWVSEVMLQQTQVATVINYYTGWMQKWPTLQDLASASLEEVNQLWAGLGYYSRGRRLQEGARKVVEELGGHMPRTAETLQQLLPGVGRYTAGAIASIAFGQATGVVDGNVARVLCRVRAIGADPSSTLVSQQLWGLAQQLVDPARPGDFNQAAMELGATVCTPQRPLCSQCPVESLCRARQRVEQEQLLASGSLSGSPDVEECAPNTGQCHLCLPPSEPWDQTLGVVNFPRKASRKPPREESSATCVLEQPGALGAQILLVQRPNSGLLAGLWEFPSVTWEPSEQLQRKALLQELQQWAGPLPATHLRHLGEVVHTFSHIKLTYQVYGLALEGQTPVTTVPPGARWLTQEEFHTAAVSTAMKKVFRVYQGQQPGTCMGSKRSQVSSPCSRKKPRMGQQVLDNFFRSHISTDAHSLNSAAQ [R398Q],-0.525
6,MRKPRAAVGSGHRKQAASQEGRQKHAKNNSQAKPSACDGLARQPEEVVLQASVSSYHLFRDVAEVTAFRGSLLSWYDQEKRDLPWRRRAEDEMDLDRRAYAVWVSEVMLQQTQVATVINYYTGWMQKWPTLQDLASASLEEVNQLWAGLGYYSRGRRLQEGARKVVEELGGHMPRTAETLQQLLPGVGRYTAGAIASIAFGQATGVVDGNVARVLCRVRAIGADPSSTLVSQQLWGLAQQLVDPARPGDFNQAAMELGATVCTPQRPLCSQCPVESLCRARQRVEQEQLLASGSLSGSPDVEECAPNTGQCHLCLPPSEPWDQTLGVVNFPRKASRKPPREESSATCVLEQPGALGAQILLVQRPNSGLLAGLWEFPSVTWEPSEQLQRKALLQELQYWAGPLPATHLRHLGEVVHTFSHIKLTYQVYGLALEGQTPVTTVPPGARWLTQEEFHTAAVSTAMKKVFRVYQGQQPGTCMGSKRSQVSSPCSRKKPRMGQQVLDNFFRSHISTDAHSLNSAAQ [R398Y],0.174
7,MRKPRAAVGSGHRKQAASQEGRQKHAKNNSQAKPSACDGLARQPEEVVLQASVSSYHLFRDVAEVTAFRGSLLSWYDQEKRDLPWRRRAEDEMDLDRRAYAVWVSEVMLQQTQVATVINYYTGWMQKWPTLQDLASASLEEVNQLWAGLGYYSRGRRLQEGARKVVEELGGHMPRTAETLQQLLPGVGRYTAGAIASIAFGQATGVVDGNVARVLCRVRAIGADPSSTLVSQQLWGLAQQLVDPARPGDFNQAAMELGATVCTPQRPLCSQCPVESLCRARQRVEQEQLLASGSLSGSPDVEECAPNTGQCHLCLPPSEPWDQTLGVVNFPRKASRKPPREESSATCVLEQPGALGAQILLVQRPNSGLLAGLWEFPSVTWEPSEQLQRKALLQELQLWAGPLPATHLRHLGEVVHTFSHIKLTYQVYGLALEGQTPVTTVPPGARWLTQEEFHTAAVSTAMKKVFRVYQGQQPGTCMGSKRSQVSSPCSRKKPRMGQQVLDNFFRSHISTDAHSLNSAAQ [R398L],-0.263
8,MRKPRAAVGSGHRKQAASQEGRQKHAKNNSQAKPSACDGLARQPEEVVLQASVSSYHLFRDVAEVTAFRGSLLSWYDQEKRDLPWRRRAEDEMDLDRRAYAVWVSEVMLQQTQVATVINYYTGWMQKWPTLQDLASASLEEVNQLWAGLGYYSRGRRLQEGARKVVEELGGHMPRTAETLQQLLPGVGRYTAGAIASIAFGQATGVVDGNVARVLCRVRAIGADPSSTLVSQQLWGLAQQLVDPARPGDFNQAAMELGATVCTPQRPLCSQCPVESLCRARQRVEQEQLLASGSLSGSPDVEECAPNTGQCHLCLPPSEPWDQTLGVVNFPRKASRKPPREESSATCVLEQPGALGAQILLVQRPNSGLLAGLWEFPSVTWEPSEQLQRKALLQELQTWAGPLPATHLRHLGEVVHTFSHIKLTYQVYGLALEGQTPVTTVPPGARWLTQEEFHTAAVSTAMKKVFRVYQGQQPGTCMGSKRSQVSSPCSRKKPRMGQQVLDNFFRSHISTDAHSLNSAAQ [R398T],-0.326
9,MRKPRAAVGSGHRKQAASQEGRQKHAKNNSQAKPSACDGLARQPEEVVLQASVSSYHLFRDVAEVTAFRGSLLSWYDQEKRDLPWRRRAEDEMDLDRRAYAVWVSEVMLQQTQVATVINYYTGWMQKWPTLQDLASASLEEVNQLWAGLGYYSRGRRLQEGARKVVEELGGHMPRTAETLQQLLPGVGRYTAGAIASIAFGQATGVVDGNVARVLCRVRAIGADPSSTLVSQQLWGLAQQLVDPARPGDFNQAAMELGATVCTPQRPLCSQCPVESLCRARQRVEQEQLLASGSLSGSPDVEECAPNTGQCHLCLPPSEPWDQTLGVVNFPRKASRKPPREESSATCVLEQPGALGAQILLVQRPNSGLLAGLWEFPSVTWEPSEQLQRKALLQELQIWAGPLPATHLRHLGEVVHTFSHIKLTYQVYGLALEGQTPVTTVPPGARWLTQEEFHTAAVSTAMKKVFRVYQGQQPGTCMGSKRSQVSSPCSRKKPRMGQQVLDNFFRSHISTDAHSLNSAAQ [R398I],-0.416
10,MRKPRAAVGSGHRKQAASQEGRQKHAKNNSQAKPSACDGLARQPEEVVLQASVSSYHLFRDVAEVTAFRGSLLSWYDQEKRDLPWRRRAEDEMDLDRRAYAVWVSEVMLQQTQVATVINYYTGWMQKWPTLQDLASASLEEVNQLWAGLGYYSRGRRLQEGARKVVEELGGHMPRTAETLQQLLPGVGRYTAGAIASIAFGQATGVVDGNVARVLCRVRAIGADPSSTLVSQQLWGLAQQLVDPARPGDFNQAAMELGATVCTPQRPLCSQCPVESLCRARQRVEQEQLLASGSLSGSPDVEECAPNTGQCHLCLPPSEPWDQTLGVVNFPRKASRKPPREESSATCVLEQPGALGAQILLVQRPNSGLLAGLWEFPSVTWEPSEQLQRKALLQELQVWAGPLPATHLRHLGEVVHTFSHIKLTYQVYGLALEGQTPVTTVPPGARWLTQEEFHTAAVSTAMKKVFRVYQGQQPGTCMGSKRSQVSSPCSRKKPRMGQQVLDNFFRSHISTDAHSLNSAAQ [R398V],-0.2
11,MRKPRAAVGSGHRKQAASQEGRQKHAKNNSQAKPSACDGLARQPEEVVLQASVSSYHLFRDVAEVTAFRGSLLSWYDQEKRDLPWRRRAEDEMDLDRRAYAVWVSEVMLQQTQVATVINYYTGWMQKWPTLQDLASASLEEVNQLWAGLGYYSRGRRLQEGARKVVEELGGHMPRTAETLQQLLPGVGRYTAGAIASIAFGQATGVVDGNVARVLCRVRAIGADPSSTLVSQQLWGLAQQLVDPARPGDFNQAAMELGATVCTPQRPLCSQCPVESLCRARQRVEQEQLLASGSLSGSPDVEECAPNTGQCHLCLPPSEPWDQTLGVVNFPRKASRKPPREESSATCVLEQPGALGAQILLVQRPNSGLLAGLWEFPSVTWEPSEQLQRKALLQELQKWAGPLPATHLRHLGEVVHTFSHIKLTYQVYGLALEGQTPVTTVPPGARWLTQEEFHTAAVSTAMKKVFRVYQGQQPGTCMGSKRSQVSSPCSRKKPRMGQQVLDNFFRSHISTDAHSLNSAAQ [R398K],-0.0169
12,MRKPRAAVGSGHRKQAASQEGRQKHAKNNSQAKPSACDGLARQPEEVVLQASVSSYHLFRDVAEVTAFRGSLLSWYDQEKRDLPWRRRAEDEMDLDRRAYAVWVSEVMLQQTQVATVINYYTGWMQKWPTLQDLASASLEEVNQLWAGLGYYSRGRRLQEGARKVVEELGGHMPRTAETLQQLLPGVGRYTAGAIASIAFGQATGVVDGNVARVLCRVRAIGADPSSTLVSQQLWGLAQQLVDPARPGDFNQAAMELGATVCTPQRPLCSQCPVESLCRARQRVEQEQLLASGSLSGSPDVEECAPNTGQCHLCLPPSEPWDQTLGVVNFPRKASRKPPREESSATCVLEQPGALGAQILLVQRPNSGLLAGLWEFPSVTWEPSEQLQRKALLQELQPWAGPLPATHLRHLGEVVHTFSHIKLTYQVYGLALEGQTPVTTVPPGARWLTQEEFHTAAVSTAMKKVFRVYQGQQPGTCMGSKRSQVSSPCSRKKPRMGQQVLDNFFRSHISTDAHSLNSAAQ [R398P],-0.556
